The results in this text go back to patent US20230212319A1, “NOVEL ANTIGEN BINDING DOMAINS AND SYNTHETIC ANTIGEN RECEPTORS INCORPORATING THE SAME” (University of Southern California, priority 2020, published 2023).

What all share (format): cell-based
One test relates to Nalm6 cells. The test is described as follows: JNG assay, co-culture with Nalm6 cells. The settings on record: co-culture with Nalm6. In a few lines:
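SAR-JNG (lentiviral spinfection, drug-selected) + target cells, E:T ≈1:2, ≈4–18 h; FACS for GFP; positivity = %GFP+ over parental JNG; grades +/- to 5+ ≈ 5–50% GFP+.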

In the next test the test system is RAJI-CD19-KO cells. The test is described as follows: JNG assay, co-culture with RAJI-CD19-KO cells. The settings on record: co-culture with Raji-CD19-KO. In a few lines: (§1)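 Read-out is NFAT-driven GFP measured by flow cytometry after ~4–18 h co-culture of SAR-expressing JNG cells with target cells (E:T about 1:2). SARs were introduced by lentiviral spinfection and selected with puromycin or blasticidin when possible; scores (+/- to 5+ ≈ 5–50% GFP+) are relative to parental JNG cells.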

For the next test, the system named is RS;411. In words: JNG assay, co-culture with RS;411 cells. Conditions: co-culture with RS411. Here is the method: Cellular supernatant is collected and assayed for the induction of cytokines (e.g., IL2).
JNG (Jurkat cells expressing EGFP under an NFAT promoter) were infected with lentiviral vectors encoding different single chain and multi-chain SARs by spinfection in the presence of 8 µg/ml of Polybrene® (Sigma, Catalog no. H9268). The Jurkat-NFAT-GFP cells are engineered in such a way that the IL-2 promoter, which carries NFAT binding sites, is cloned upstream of the GFP gene. These cells have been used to study signaling via TCR and CAR. The different SARs were stably expressed in Jurkat NFAT-GFP cells by lentiviral mediated gene transfer, followed by selection with puromycin or blasticidin. No drug selection was used in case the construct lacked an antibiotic resistance gene. The SAR-expressing Jurkat-NFAT-GFP cells were cocultured with the target cells at E:T ratio of approximately 1:2 for approximately 4 hours to 18 hours. When the interaction between SIRs and their target antigen results in activation of the NFAT pathway, GFP expression is induced. […] GFP expression was monitored by FACS analysis. The Jurkat-NFAT-GFP (parental) cells were used as control. The structure of different constructs can be determined based on their names. […] The sequence of the other constructs in the table can be similarly determined from their names and by referring to the different Tables of this disclosure that provide the names and SEQ ID NO of the different modules. Alternatively, the composition and modular architecture of the different SAR constructs can be determined from their sequences by bioinformatics tools, including using nucleic acid and amino acids homology searches. A SAR is considered positive in the assay in case the SAR expressing Jurkat-NFAT-GFP cells show greater % GFP positive cells when cultured with the target cell line as compared to parental Jurkat-NFAT-GFP cells. […] In general, the number +/-, +, 2+, 3+, 4+, 5+ refer to approximately 5%, 10%, 20%, 30%, 40% and 50% GFP positive cells. The % of GFP induction in the above assay is dependent not only the relative strength of the SAR but also, among other factors, on the relative level of expression of the SAR in the JNG cells and the relative level of expression of the target antigen in the target cell line. To control for the difference in gene transduction efficiency of the different SAR constructs, the experiment was conducted with JNG cells transduced with SAR constructs co-expressing a drug resistance gene (e.g., puromycin or PAC) followed by drug selection to generate a stable population of SAR-expressing cells. It is to be noted that the drug resistance gene (e.g., PAC) in the SAR constructs is optional and in vivo studies were conducted with SAR constructs lacking the PAC gene.

For a further test, the system named is RAJI cells. The test is described as follows: JNG assay, co-culture with RAJI cells. The settings on record: JNG cells expressing construct, co-culture with Raji. In a few lines:
as §1

B1: 22105 (protein)
chain: MALPVTALLLPLALLLHAARPDIQMTQSPSSLSASVGDRVTITCKASDHINNWLAWYQQKPGQAPKLLIYGATTLETGVPSRFSGSGSGTDYTLTISSLQPEDFATYYCQQSWNTPWTFGQGTKLEIKRLEDLKNVFPPEVAVFEPSEAEISHTQKATLVCLATGFYPDHVELSWWVNGKEVHSGVCTDPQPLKEQPALNDSRYCLSSRLRVSATFWQNPRNHFRCQVQFYGLSENDEWTQDRAKPVTQIVSAEAWGRADCGFTSESYQQGVLSATILYEILLGKATLYAVLVSALVLMAMVKRKDSRGRAKRSGSGATNFSLLKQAGDVEENPGPTSATMDWIWRILFLVGAATGAHSGPQVQLQESGGGLAQAGGSLRLSCAASGRTFSMGWFRQAPGKEREFVAAITYSGGSPYYASSVRGRFTISRDNAKNTVYLQMNSLKPEDTAVYYCAANPTYGSDWNAENWGQGTQVTVSSGSGGGGSGGGGSGGGGSFEQVQLQQPGAELVKPGASVKMSCKASGYAFSSYWINWMKQKPGQGLEWIGQIYPGDGDTNYNGKFKGRATLTADTSSSTAYMQLSSLTSEDSAVYFCARSITTVVGCAMDYWGQGTSVTVSSTRIQNPDPAVYQLRDSKSSDKSVCLFTDFDSQTNVSQSKDSDVYITDKCVLDMRSMDFKSNSAVAWSNKSDFACANAFNNSIIPEDTFFPSPESSCDVKLVEKSFETDTNLNFQNLSVIGFRILLLKVAGFNLLMTLRLWSSRAKRSGSGVKQTLNFDLLKLAGDVESNPGPSRGHMTEYKPTVRLATRDDVPRAVRTLAAAFADYPATRHTVDPDRHIERVTELQELFLTRVGLDIGKVWVADDGAAVAVWTTPESVEAGAVFAEIGPRMAELSGSRLAAQQQMEGLLAPHRPKEPAWFLATVGVSPDHQGKGLGSAVVLPGVEAAERAGVPAFLETSAPRNLPFYERLGFTVTADVEVPEGPRTWCMTRKPGA
With B1, in the test with Nalm6 cells, the “NFAT-GFP ASSAY: Nalm6” value is 5+ (refer to approximately 5%, 10%, 20%, 30%, 40% and 50% GFP positive cells). Moreover, the “NFAT-GFP ASSAY: Raji-CD19-KO” value with RAJI-CD19-KO cells is 4+ (refer to approximately 5%, 10%, 20%, 30%, 40% and 50% GFP positive cells).

B2: 22115 (protein)
chain: MALPVTALLLPLALLLHAARPQVQLVESGGGLVQPGGSLRLSCAASGFTFTNHAMSWVRQAPGKGLELVSSISGNGRTTYYADSVKGRFTISRDISKNTLDLQMNSLRAEDTAVYYCAKDGGETLVDSRGQGTLVTVSSLEDLKNVFPPEVAVFEPSKAEIAHTQKATLVCLATGFYPDHVELSWWVNGKEVHSGVCTDPQPLKEQPALNDSRYCLSSRLRVSATFWQNPRNHFRCQVQFYGLSENDEWTQDRAKPVTQIVSAEAWGRADCGITSASYHQGVLSATILYEILLGKATLYAVLVSALVLMAMVKRKDSRGRAKRSGSGATNFSLLKQAGDVEENPGPTSTMALPVTALLLPLALLLHAARPQVQLVESGGGLVQPGGSLRLSCAASGFTFTNHAMSWVRQAPGKGLELVSSISGNGRTTYYADSVKGRFTISRDISKNTLDLQMNSLRAEDTAVYYCAKDGGETLVDSRGQGTLVTVSSLESGGGGSFEQVQLQQPGAELVKPGASVKMSCKASGYAFSSYWINWMKQKPGQGLEWIGQIYPGDGDTNYNGKFKGRATLTADTSSSTAYMQLSSLTSEDSAVYFCARSITTVVGCAMDYWGQGTSVTVSSTRIQNPDPAVYQLRDSKSSDKSVCLFTDFDSQTNVSQSKDSDVYITDKCVLDMRSMDFKSNSAVAWSNKSDFACANAFNNSIIPEDTFFPSSDVPCDVKLVEKSFETDTNLNFQNLSVIGFRILLLKVAGFNLLMTLRLWSSRAKRSGSGVKQTLNFDLLKLAGDVESNPGPSRGHMTEYKPTVRLATRDDVPRAVRTLAAAFADYPATRHTVDPDRHIERVTELQELFLTRVGLDIGKVWVADDGAAVAVWTTPESVEAGAVFAEIGPRMAELSGSRLAAQQQMEGLLAPHRPKEPAWFLATVGVSPDHQGKGLGSAVVLPGVEAAERAGVPAFLETSAPRNLPFYERLGFTVTADVEVPEGPRTWCMTRKPGA
Turning to B2, the “NFAT-GFP ASSAY: RS411” value in the test with RS;411 is 2+ (refer to approximately 5%, 10%, 20%, 30%, 40% and 50% GFP positive cells).

B3: 22201 (protein)
chain: MALPVTALLLPLALLLHAARPACEVQLLESGGGLIQPGGSLRLSCAASGFTFSSHAMTWVRQAPGKGLEWVSAISGSGDYTHYADSVKGRFTISRDNSKNTVYLQMNSLRAEDSAVYYCAKDEDGGSLLGHRGQGTLVTVSSGTGGGGSGGGGSGGGGSEFAGHLEQPQISSTKTLSKTARLECVVSGITISATSVYWYRERPGEVIQFLVSISYDGTVRKESGIPSGKFEVDRIPETSTSTLTIHNVEKQDIATYYCALWEAQQELGKKIKVFGPGTKLIITDKQLDKQLDADVSPKPTIFLPSIAETKLQKAGTYLCLLEKFFPDVIKIHWQEKKSNTILGSQEGNTMKTNDTYMKFSWLTVPEKSLDKEHRCIVRHENNKNGVDQEIIFPPIKTDVITMDPKDNCSKDANDTLLLQLTNTSAYYMYLLLLLKSVVYFAIITCCLLRRTAFCCNGEKSRAKRSGSGATNFSLLKQAGDVEENPGPTSATMDWIWRILFLVGAATGAHSGPQVQLQESGGGLAQAGGSLRLSCAASGRTFSMGWFRQAPGKEREFVAAITYSGGSPYYASSVRGRFTISRDNAKNTVYLQMNSLKPEDTAVYYCAANPTYGSDWNAENWGQGTQVTVSSGSGGGGSGGGGSGGGGSFEAIELVPEHQTVPVSIGVPATLRCSMKGEAIGNYYINWYRKTQGNTMTFIYREKDIYGPGFKDNFQGDIDIAKNLAVLKILAPSERDEGSYYCACDTLGMGGEYTDKLIFGKGTRVTVEPRSQPHTKPSVFVMKNGTNVACLVKEFYPKDIRINLVSSKKITEFDPAIVISPSGKYNAVKLGKYEDSNSVTCSVQHDNKTVHSTDFEVKTDSTDHVKPKETENTKQPSKSCHKPKAIVHTEKVNMMSLTVLGLRMLFAKTVAVNFLLTAKLFFLRAKRSGSGVKQTLNFDLLKLAGDVESNPGPSRAHMTEYKPTVRLATRDDVPRAVRTLAAAFADYPATRHTVDPDRHIERVTELQELFLTRVGLDIGKVWVADDGAAVAVWTTPESVEAGAVFAEIGPRMAELSGSRLAAQQQMEGLLAPHRPKEPAWFLATVGVSPDHQGKGLGSAVVLPGVEAAERAGVPAFLETSAPRNLPFYERLGFTVTADVEVPEGPRTWCMTRKPGA
As for B3, in the test on Nalm6 cells, the “NFAT-GFP ASSAY: Nalm6” value is “+/- (refer to approximately 5%, 10%, 20%, 30%, 40% and 50% GFP positive cells)”. The “NFAT-GFP ASSAY: Raji-CD19-KO” value in the test with RAJI-CD19-KO cells is 2+ (refer to approximately 5%, 10%, 20%, 30%, 40% and 50% GFP positive cells).

B4: 22161 (protein)
chain: MALPVTALLLPLALLLHAARPACEVQLLESGGGLIQPGGSLRLSCAASGFTFSSHAMTWVRQAPGKGLEWVSAISGSGDYTHYADSVKGRFTISRDNSKNTVYLQMNSLRAEDSAVYYCAKDEDGGSLLGHRGQGTLVTVSSGTGGGGSGGGGSGGGGSEFDIQMTQSPSSLSASVGDRVTITCKASDHINNWLAWYQQKPGQAPKLLIYGATTLETGVPSRFSGSGSGTDYTLTISSLQPEDFATYYCQQSWNTPWTFGQGTKLEIKRLEDLKNVFPPEVAVFEPSEAEISHTQKATLVCLATGFYPDHVELSWWVNGKEVHSGVCTDPQPLKEQPALNDSRYCLSSRLRVSATFWQNPRNHFRCQVQFYGLSENDEWTQDRAKPVTQIVSAEAWGRADCGFTSESYQQGVLSATILYEILLGKATLYAVLVSALVLMAMVKRKDSRGRAKRSGSGATNFSLLKQAGDVEENPGPTSATMDWIWRILFLVGAATGAHSGPEVQLVESGGGLVQAGGSLRLSCAASGRTFSMGWFRQAPGKEREFVAAITYSGGSPYYADSVKGRFTISRDNAKNTVYLQMNSLKPEDTAVYYCAANPTYGSDWNAENWGQGTQVTVSSGSGGGGSGGGGSGGGGSFEQVQLQQPGAELVKPGASVKMSCKASGYAFSSYWINWMKQKPGQGLEWIGQIYPGDGDTNYNGKFKGRATLTADTSSSTAYMQLSSLTSEDSAVYFCARSITTVVGCAMDYWGQGTSVTVSSTRIQNPDPAVYQLRDSKSSDKSVCLFTDFDSQTNVSQSKDSDVYITDKCVLDMRSMDFKSNSAVAWSNKSDFACANAFNNSIIPEDTFFPSPESSCDVKLVEKSFETDTNLNFQNLSVIGFRILLLKVAGFNLLMTLRLWSSRAKRSGSGVKQTLNFDLLKLAGDVESNPGPSRGHMTEYKPTVRLATRDDVPRAVRTLAAAFADYPATRHTVDPDRHIERVTELQELFLTRVGLDIGKVWVADDGAAVAVWTTPESVEAGAVFAEIGPRMAELSGSRLAAQQQMEGLLAPHRPKEPAWFLATVGVSPDHQGKGLGSAVVLPGVEAAERAGVPAFLETSAPRNLPFYERLGFTVTADVEVPEGPRTWCMTRKPGA
Regarding B4, in the test on Nalm6 cells, the “NFAT-GFP ASSAY: Nalm6” value is “+/- (refer to approximately 5%, 10%, 20%, 30%, 40% and 50% GFP positive cells)”. Further, the “NFAT-GFP ASSAY: Raji” value with RAJI cells was “+/- (refer to approximately 5%, 10%, 20%, 30%, 40% and 50% GFP positive cells)”. The “NFAT-GFP ASSAY: Raji-CD19-KO” value with RAJI-CD19-KO cells was “+/- (refer to approximately 5%, 10%, 20%, 30%, 40% and 50% GFP positive cells)”.
